Data: patent publication US20240245796A1 (PROFOUNDBIO US, published 2024)

How the values were obtained:
[1] = target: T1, human FOLR1 extracellular domain linked to His tag (human, UniProt P15328 25-233, limits assumed); test: BLI, global 1:1 fit (125 nM row)
T1 construct: extracellular domain; It may be the same product as m13; also called Hu-FRα; Hu-Ag; not shown: His tag

[2] = target: T2, human FOLR2 extracellular domain linked to His tag (human, UniProt P14207 17-230, limits assumed); test: BLI, global 1:1 fit (125 nM row)
T2 construct: extracellular domain; Antigen in solution in BLI; also called Hu-FRb; not shown: His tag

[3] = target: T1, human FOLR1 extracellular domain linked …; test: BLI, global 1:1 fit (250 nM row)
[4] = target: T2, human FOLR2 extracellular domain linked …; test: BLI, global 1:1 fit (250 nM row)
[5] = target: T1, human FOLR1 extracellular domain linked …; test: BLI, global 1:1 fit (125 nM row); remark: listed apart in the source
[6] = target: T3, cynomolgus monkey FOLR1 extracellular domain linked to His tag (cynomolgus monkey, UniProt A0A2K5U044 25-233); test: BLI, global 1:1 fit (125 nM row)
T3 construct: extracellular domain; Antigen in solution in BLI; It may be the same product as m14; also called Cyno-Ag; not shown: His tag

[7] = target: T1, human FOLR1 extracellular domain linked …; test: BLI, global 1:1 fit (500 nM row)
[8] = target: T3, cynomolgus monkey FOLR1 extracellular …; test: BLI, global 1:1 fit (500 nM row)
[9] = target: T1, human FOLR1 extracellular domain linked …; test: BLI, global 1:1 fit (7.82 nM row)
[10] = target: T2, human FOLR2 extracellular domain linked …; test: BLI, global 1:1 fit (7.82 nM row)
[11] = target: T1, human FOLR1 extracellular domain linked …; test: BLI, global 1:1 fit (31.3 nM row)
[12] = target: T3, cynomolgus monkey FOLR1 extracellular …; test: BLI, global 1:1 fit (31.3 nM row)
[13] = target: T1, human FOLR1 extracellular domain linked …; test: BLI, Ag 250 nM over Ab on anti-hIgG Fc tip
[14] = target: T3, cynomolgus monkey FOLR1 extracellular …; test: BLI, Ag 250 nM over Ab on anti-hIgG Fc tip
[15] = target: T4, rat FOLR1 extracellular domain linked to His tag (rat); test: BLI, Ag 125 nM; * = below range of quantification
T4 construct: extracellular domain; Antigen in solution in BLI; also called Rat-Ag

[16] = target: T4, rat FOLR1 extracellular domain linked …; test: BLI, Ag 31.3 nM; * = below range of quantification
[17] = target: T5, human FOLR3 extracellular domain linked to His tag (human, UniProt P41439 23-245, limits assumed); test: BLI, global 1:1 fit (250 nM row); all responses below quantification
T5 construct: extracellular domain; Antigen in solution in BLI; also called Hu-FRg; not shown: His tag

[18] = target: T4, rat FOLR1 extracellular domain linked …; test: BLI, global 1:1 fit (125 nM row); all responses below quantification
[19] = target: T5, human FOLR3 extracellular domain linked …; test: BLI, global 1:1 fit (31.3 nM row); all responses below quantification
[20] = target: T4, rat FOLR1 extracellular domain linked …; test: BLI, global 1:1 fit (15.6 nM row); all responses below quantification
[21] = target: T4, rat FOLR1 extracellular domain linked …; test: BLI, global 1:1 fit (31.3 nM row); all responses below quantification
[22] = target: T6, mouse FOLR1 extracellular domain linked to His tag (mouse, UniProt P35846 25-232, limits assumed); test: BLI, global 1:1 fit (31.3 nM row); only the 500 nM response quantifiable
T6 construct: extracellular domain; Antigen in solution in BLI; also called Mouse-Ag; not shown: His tag

[23] = target: T6, mouse FOLR1 extracellular domain linked …; test: BLI, global 1:1 fit (7.82 nM row); only the 500 nM response quantifiable

T3 sequence (A0A2K5U044 entry or part of it): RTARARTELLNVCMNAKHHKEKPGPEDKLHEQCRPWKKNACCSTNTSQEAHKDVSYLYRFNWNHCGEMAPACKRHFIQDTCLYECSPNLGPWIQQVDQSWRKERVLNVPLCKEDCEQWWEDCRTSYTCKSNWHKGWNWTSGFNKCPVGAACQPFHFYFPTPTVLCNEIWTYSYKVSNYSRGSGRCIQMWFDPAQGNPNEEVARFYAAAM
T5 sequence (P41439 23-245 limits assumed): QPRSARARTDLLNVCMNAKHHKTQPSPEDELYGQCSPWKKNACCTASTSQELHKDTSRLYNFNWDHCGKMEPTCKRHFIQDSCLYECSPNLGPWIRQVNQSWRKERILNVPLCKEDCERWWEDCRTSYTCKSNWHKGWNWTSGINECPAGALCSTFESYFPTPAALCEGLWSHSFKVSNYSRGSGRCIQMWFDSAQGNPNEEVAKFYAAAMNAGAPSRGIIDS
T1 sequence (P15328 25-233 limits assumed): as the sequence (A0A2K5U044 entry or part of it) above, with T2I, R4W, K37R, P146A, Y171H counted along it
T6 sequence (P35846 25-232 limits assumed): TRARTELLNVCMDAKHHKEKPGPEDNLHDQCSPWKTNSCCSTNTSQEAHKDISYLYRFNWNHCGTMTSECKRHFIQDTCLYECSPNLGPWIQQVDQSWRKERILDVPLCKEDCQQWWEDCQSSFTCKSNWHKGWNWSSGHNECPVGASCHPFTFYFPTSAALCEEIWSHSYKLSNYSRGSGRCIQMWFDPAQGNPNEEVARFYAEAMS
T2 sequence (P14207 17-230 limits assumed): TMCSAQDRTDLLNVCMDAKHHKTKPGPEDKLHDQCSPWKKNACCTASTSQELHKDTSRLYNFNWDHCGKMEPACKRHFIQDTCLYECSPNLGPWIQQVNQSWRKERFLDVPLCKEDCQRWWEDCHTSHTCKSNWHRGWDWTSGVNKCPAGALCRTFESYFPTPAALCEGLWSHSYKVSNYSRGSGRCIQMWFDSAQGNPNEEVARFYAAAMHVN

B1: F131 (antibody, V domains shown)
VH: EVQLLESGGGVVQPGRSLRLSCAASGFTFSSYGMHWVRQAPGKGLEWVAVISYDGSNKYYADSVKGRFTISRANSKNTLYLQMNSLRAEDTAVYYCARPRAYYGAYGSSFDYWGQGTQVTVSS
VL: EIVMTQSPSSVSASVGDRVAITCRASQGISSWLAWYQQKPGKAPKLLIYAASSLQSGVPSRFSGSGSGTDFTLTISSLQPEDFATYYCQQSYSTPLTFGGGTKVDIK
notes: also called clone F131; F131 mAb
- Kd [1]: 5.3 nM
- koff [1]: 0.0012 s⁻¹
- kon [1]: 226000 M⁻¹ s⁻¹
- Kd [2]: 142 nM
- koff [2]: 0.0784 s⁻¹
- kon [2]: 552000 M⁻¹ s⁻¹
- Kd [3]: 5.3 nM
- koff [3]: 0.0012 s⁻¹
- kon [3]: 226000 M⁻¹ s⁻¹
- Kd [4]: 142 nM
- koff [4]: 0.0784 s⁻¹
- kon [4]: 552000 M⁻¹ s⁻¹
- Kd [5]: 1.53 nM
- koff [5]: 0.000338 s⁻¹
- kon [5]: 221000 M⁻¹ s⁻¹
- Kd [6]: 8.15 nM
- koff [6]: 0.00157 s⁻¹
- kon [6]: 193000 M⁻¹ s⁻¹
- koff [7]: 0.000338 s⁻¹
- kon [7]: 221000 M⁻¹ s⁻¹
- Kd [8]: 8.15 nM
- koff [8]: 0.00157 s⁻¹
- kon [8]: 193000 M⁻¹ s⁻¹
- Kd [9]: 5.3 nM
- koff [9]: 0.0012 s⁻¹
- kon [9]: 226000 M⁻¹ s⁻¹
- Kd [10]: 142 nM
- koff [10]: 0.0784 s⁻¹
- kon [10]: 552000 M⁻¹ s⁻¹
- Kd [11]: 1.53 nM
- koff [11]: 0.000338 s⁻¹
- kon [11]: 221000 M⁻¹ s⁻¹
- Kd [12]: 8.15 nM
- koff [12]: 0.00157 s⁻¹
- kon [12]: 193000 M⁻¹ s⁻¹
- Response [13]: 0.162
- Response [14]: 0.209
- Response [15]: -0.00477
- Response [16]: -0.00532
- koff [17]: 0.217 s⁻¹
- kon [17]: 1660 M⁻¹ s⁻¹
- koff [18]: 1.03 s⁻¹
- kon [18]: 5490 M⁻¹ s⁻¹
- koff [19]: 0.217 s⁻¹
- kon [19]: 1660 M⁻¹ s⁻¹
- koff [20]: 1.03 s⁻¹
- kon [20]: 5490 M⁻¹ s⁻¹
- koff [21]: 1.03 s⁻¹
- kon [21]: 5490 M⁻¹ s⁻¹
- Kd [22]: 2960 nM
- koff [22]: 0.301 s⁻¹
- kon [22]: 102000 M⁻¹ s⁻¹
- Kd [23]: 2960 nM
- koff [23]: 0.301 s⁻¹
- kon [23]: 102000 M⁻¹ s⁻¹

B2: F131-LD038 (antibody, V domains shown)
VH: B1 VH
VL: B1 VL
modifications: drug-linker LD038 (PB038, maleimide-PEG unit-Val-Cit-PAB-exatecan) on cysteines freed by TCEP reduction; positions not given
notes: Antibody-drug conjugate of F131 (IgG1) with LD038; also called anti-huFOLR-1 conjugate F131-LD038; F131-038
- Kd [1]: 4.79 nM
- koff [1]: 0.00121 s⁻¹
- kon [1]: 252000 M⁻¹ s⁻¹
- Kd [2]: 84.4 nM
- koff [2]: 0.0813 s⁻¹
- kon [2]: 963000 M⁻¹ s⁻¹
- Kd [3]: 4.79 nM
- koff [3]: 0.00121 s⁻¹
- kon [3]: 252000 M⁻¹ s⁻¹
- Kd [4]: 84.4 nM
- koff [4]: 0.0813 s⁻¹
- kon [4]: 963000 M⁻¹ s⁻¹
- Kd [5]: 4.8 nM
- koff [5]: 0.00107 s⁻¹
- kon [5]: 224000 M⁻¹ s⁻¹
- Kd [6]: 8.82 nM
- koff [6]: 0.0016 s⁻¹
- kon [6]: 181000 M⁻¹ s⁻¹
- Kd [7]: 4.8 nM
- koff [7]: 0.00107 s⁻¹
- kon [7]: 224000 M⁻¹ s⁻¹
- Kd [8]: 8.82 nM
- koff [8]: 0.0016 s⁻¹
- kon [8]: 181000 M⁻¹ s⁻¹
- Kd [9]: 4.79 nM
- koff [9]: 0.00121 s⁻¹
- kon [9]: 252000 M⁻¹ s⁻¹
- Kd [10]: 84.4 nM
- koff [10]: 0.0813 s⁻¹
- kon [10]: 963000 M⁻¹ s⁻¹
- Kd [11]: 4.8 nM
- koff [11]: 0.00107 s⁻¹
- kon [11]: 224000 M⁻¹ s⁻¹
- Kd [12]: 8.82 nM
- koff [12]: 0.0016 s⁻¹
- kon [12]: 181000 M⁻¹ s⁻¹
- Response [13]: 0.184
- Response [14]: 0.18
- Response [15]: 0.0007
- Response [16]: -0.00454
- koff [17]: 0.233 s⁻¹
- koff [18]: 0.224 s⁻¹
- kon [18]: 2.64e+06 M⁻¹ s⁻¹
- koff [19]: 0.233 s⁻¹
- koff [20]: 0.224 s⁻¹
- kon [20]: 2.64e+06 M⁻¹ s⁻¹
- koff [21]: 0.224 s⁻¹
- kon [21]: 2.64e+06 M⁻¹ s⁻¹
- Kd [22]: 2870 nM
- koff [22]: 0.266 s⁻¹
- kon [22]: 92600 M⁻¹ s⁻¹
- Kd [23]: 2870 nM
- koff [23]: 0.266 s⁻¹
- kon [23]: 92600 M⁻¹ s⁻¹
